Reference: patent US11795460B2, “Compositions and methods for TTR gene editing and treating ATTR amyloidosis” (Intellia Therapeutics, Inc., priority 2017, dated 2023)
Strand notation (5' to 3'): a small letter for the sugar, then the base; units joined by * are phosphorothioate-linked, units joined directly phosphodiester-linked; [ ] holds rarer units or linkages, { } end groups; capitals alone tell only the bases. m = 2'-O-methyl; r = 2'-OH (RNA)

tested on: TTR mRNA; test: TTR mRNA knockdown in primary human hepatocytes by quantitative PCR (Tables 34, 35); assay type: cell-based; details: TTR mRNA in PHH; LNP dose 300 ng mRNA cargo; gRNA:mRNA 1:2; 96 hours after treatment; biological triplicates; vs untreated control
Experimental: In one experiment, PHH were cultured and treated with LNPs comprising Cas9 mRNA (SEQ ID NO:1) and a gRNA of interest (See FIG. 29, Table 34), as described in Example 4. The LNPs were prepared using the cross-flow procedure described above and purified and concentrated using PD-10 columns and Amicon centrifugal filter units, respectively. The LNPs were formulated with an N:P ratio of 6.0 and contained Lipid A, Cholesterol, DSPC, and PEG2k-DMG in a 50:38:9:2 molar ratio, respectively. The LNPs comprised a gRNA:mRNA ratio of 1:2, and the cells were treated at a dose of 300 ng (with respect to the amount of mRNA cargo delivered).
(§1) Ninety-six (96) hours following LNP treatment (with biological triplicates for each condition), mRNA was purified from PHH cells using the Dynabeads mRNA DIRECT Kit (ThermoFisher Scientific) according to the manufacturer's protocol. Reverse Transcription (RT) was performed with Maxima reverse transcriptase (ThermoFisher Scientific) and a poly-dT primer. The resulting cDNA was purified with Ampure XP Beads (Agencourt). For Quantitative PCR, 2% of the purified cDNA was amplified with Taqman Fast Advanced Mastermix and 3 Taqman probe sets, TTR (Assay ID: Hs00174914_m1), GAPDH (Assay ID: Hs02786624_g1), and PPIB (Assay ID: Hs00168719_m1). The assays were run on the QuantStudio 7 Flex Real Time PCR System according to the manufacturer's instructions (Life Technologies). Relative expression of TTR mRNA was calculated by normalizing to the endogenous controls (GAPDH and PPIB) individually, and then averaged.
In a separate experiment, TTR mRNA knockdown was evaluated following treatment with LNPs comprising G000480, G000486, and G000502. The LNPs were formulated and PHH were cultured and treated with the LNPs, each as described in the experiment above in this Example with the exception that the cells were treated at a dose of 100 ng (with respect to the amount of mRNA cargo delivered).
as §1, with “(single treatment” for “(with biological triplicates”, “the High Capacity cDNA Reverse Transcription Kit” for “Maxima reverse transcriptase”, “according to the manufacturer's instructions.” for “and a poly-dT primer. The resulting cDNA was purified with Ampure XP Beads (Agencourt).”, “the” for “the purified”

Row | Molecule | Avg % Knockdown
1 | G000494: TTR sgRNA modified sequence, Human, SEQ ID No. 101; guide sequence of CR003360 (nucleic acid) guide: mG*mU*mG*rArGrUrCrUrGrGrArGrArGrCrUrGrCrArUrGrUrUrUrUrArGrAmGmCmUmAmGmAmAmAmUmAmGmCrArArGrUrUrArArArArUrArArGrGrCrUrArGrUrCrCrGrUrUrArUrCrAmAmCmUmUmGmAmAmAmAmAmGmUmGmGmCmAmCmCmGmAmGmUmCmGmGmUmGmCmU*mU*mU*mU | 91.15%
2 | G000568: TTR sgRNA modified sequence, Human, SEQ ID No. 110; guide sequence of CR003391 (nucleic acid) guide: mG*mG*mC*rUrGrUrCrGrUrCrArCrCrArArUrCrCrCrArGrUrUrUrUrArGrAmGmCmUmAmGmAmAmAmUmAmGmCrArArGrUrUrArArArArUrArArGrGrCrUrArGrUrCrCrGrUrUrArUrCrAmAmCmUmUmGmAmAmAmAmAmGmUmGmGmCmAmCmCmGmAmGmUmCmGmGmUmGmCmU*mU*mU*mU | 53.44%
3 | G000499: TTR sgRNA modified sequence, Human, SEQ ID No. 106; guide sequence of CR005303 (nucleic acid) guide: mU*mG*mA*rArUrCrCrArArGrUrGrUrCrCrUrCrUrGrArGrUrUrUrUrArGrAmGmCmUmAmGmAmAmAmUmAmGmCrArArGrUrUrArArArArUrArArGrGrCrUrArGrUrCrCrGrUrUrArUrCrAmAmCmUmUmGmAmAmAmAmAmGmUmGmGmCmAmCmCmGmAmGmUmCmGmGmUmGmCmU*mU*mU*mU | 91.38%
4 | G000570: TTR sgRNA modified sequence, Human, SEQ ID No. 111; guide sequence of CR003347 (nucleic acid) guide: mC*mA*mU*rUrGrArUrGrGrCrArGrGrArCrUrGrCrCrUrGrUrUrUrUrArGrAmGmCmUmAmGmAmAmAmUmAmGmCrArArGrUrUrArArArArUrArArGrGrCrUrArGrUrCrCrGrUrUrArUrCrAmAmCmUmUmGmAmAmAmAmAmGmUmGmGmCmAmCmCmGmAmGmUmCmGmGmUmGmCmU*mU*mU*mU | 93.38%
5 | G000572: TTR sgRNA modified sequence, Human, SEQ ID No. 113; guide sequence of CR003385 (nucleic acid) guide: mC*mC*mC*rCrUrArCrUrCrCrUrArUrUrCrCrArCrCrArGrUrUrUrUrArGrAmGmCmUmAmGmAmAmAmUmAmGmCrArArGrUrUrArArArArUrArArGrGrCrUrArGrUrCrCrGrUrUrArUrCrAmAmCmUmUmGmAmAmAmAmAmGmUmGmGmCmAmCmCmGmAmGmUmCmGmGmUmGmCmU*mU*mU*mU | 55.92%
6 | G000483: TTR sgRNA modified sequence, Human, SEQ ID No. 90; guide sequence of CR005298 (nucleic acid) guide: mU*mC*mC*rArCrUrCrArUrUrCrUrUrGrGrCrArGrGrArGrUrUrUrUrArGrAmGmCmUmAmGmAmAmAmUmAmGmCrArArGrUrUrArArArArUrArArGrGrCrUrArGrUrCrCrGrUrUrArUrCrAmAmCmUmUmGmAmAmAmAmAmGmUmGmGmCmAmCmCmGmAmGmUmCmGmGmUmGmCmU*mU*mU*mU | 68.78%
7 | G000484: TTR sgRNA modified sequence, Human, SEQ ID No. 91; guide sequence of CR003367 (nucleic acid) guide: mA*mG*mA*rCrArCrCrArArArUrCrUrUrArCrUrGrGrArGrUrUrUrUrArGrAmGmCmUmAmGmAmAmAmUmAmGmCrArArGrUrUrArArArArUrArArGrGrCrUrArGrUrCrCrGrUrUrArUrCrAmAmCmUmUmGmAmAmAmAmAmGmUmGmGmCmAmCmCmGmAmGmUmCmGmGmUmGmCmU*mU*mU*mU | 75.22%
8 | G000571: TTR sgRNA modified sequence, Human, SEQ ID No. 112; guide sequence of CR005301 (nucleic acid) guide: mG*mU*mC*rArCrArGrArArArCrArCrUrCrArCrCrGrUrGrUrUrUrUrArGrAmGmCmUmAmGmAmAmAmUmAmGmCrArArGrUrUrArArArArUrArArGrGrCrUrArGrUrCrCrGrUrUrArUrCrAmAmCmUmUmGmAmAmAmAmAmGmUmGmGmCmAmCmCmGmAmGmUmCmGmGmUmGmCmU*mU*mU*mU | 96.17%
9 | G000567: TTR sgRNA modified sequence, Human, SEQ ID No. 109; guide sequence of CR003352 (nucleic acid) guide: mG*mA*mA*rArGrGrCrUrGrCrUrGrArUrGrArCrArCrCrGrUrUrUrUrArGrAmGmCmUmAmGmAmAmAmUmAmGmCrArArGrUrUrArArArArUrArArGrGrCrUrArGrUrCrCrGrUrUrArUrCrAmAmCmUmUmGmAmAmAmAmAmGmUmGmGmCmAmCmCmGmAmGmUmCmGmGmUmGmCmU*mU*mU*mU | 90.89%

tested on: TTR; test: TTR editing in primary cyno hepatocytes electroporated with Spy Cas9 protein and sgRNAs (Tables 14, 15); assay type: cell-based, cynomolgus monkey; details: Table 14; primary cyno hepatocytes electroporated with Spy Cas9 protein (RNP) and sgRNAs
Experimental: Primary liver hepatocytes. Primary human liver hepatocytes (PHH) and primary cynomolgus liver hepatocytes (PCH) (Gibco) were cultured per the manufacturer's protocol (Invitrogen, protocol 11.28.2012). In brief, the cells were thawed and resuspended in hepatocyte thawing medium with supplements (Gibco, Cat. CM7000) followed by centrifugation at 100 g for 10 minutes for human and 80 g for 4 minutes for cyno. The supernatant was discarded and the pelleted cells resuspended in hepatocyte plating medium plus supplement pack (Invitrogen, Cat. A1217601 and CM3000). Cells were counted and plated on Bio-coat collagen I coated 96-well plates (ThermoFisher, Cat. 877272) at a density of 33,000 cells/well for human or 60,000 cells/well for cyno (or 65,000 cells/well when assaying effects on TTR protein, described further below). Plated cells were allowed to settle and adhere for 6 or 24 hours in a tissue culture incubator at 37° C. and 5% CO2 atmosphere. After incubation cells were checked for monolayer formation and media was replaced with hepatocyte culture medium with serum-free supplement pack (Invitrogen, Cat. A1217601 and CM4000).
[…] formation was performed prior to electroporation or transfection of Spy Cas9 protein loaded with guide RNAs (RNPs) onto cells. For dual guide (dgRNAs), individual crRNA and trRNA was pre-annealed by mixing equivalent amounts of reagent and incubating at 95° C. for 2 min and cooling to room temperature. Single guide (sgRNAs) were boiled at 95° C. for 2 min and cooling to room temperature. The boiled dgRNA or sgRNA was incubated with Spy Cas9 protein in Optimem for 10 minutes at room temperature to form a ribonucleoprotein (RNP) complex.
For RNP electroporation into primary human and cyno hepatocytes, the cells are thawed and resuspended in Lonza electroporation Primary Cell P3 buffer at a concentration of 2500 cells per μL for human hepatocytes and 3500 cells per μL for cyno hepatocytes. A volume of 20 μL of resuspended cells and 5 μL of RNP are mixed together per guide. 20 μL of the mixture is placed into a Lonza electroporation plate. The cells were electroporated using the Lonza nucleofector with the preset protocol EX-147. Post electroporation, the cells are transferred into a Biocoat plate containing pre-warmed maintenance media and placed in a tissue culture incubator at 37° C. and 5% CO2.
Transfected cells were harvested post-transfection at 24, 48, or 72 hours. The genomic DNA was extracted from each well of a 96-well plate using 50 μL/well BuccalAmp DNA Extraction solution (Epicentre, Cat. QE09050) per manufacturer's protocol. All DNA samples were subjected to PCR and subsequent NGS analyses, as described herein.
To quantitatively determine the efficiency of editing at the target location in the genome, sequencing was utilized to identify the presence of insertions and deletions introduced by gene editing.
Primers were designed around the target site within the gene of interest (e.g. TTR), and the genomic area of interest was amplified.
Additional PCR was performed per the manufacturer's protocols (Illumina) to add chemistry for sequencing. The amplicons were sequenced on an Illumina MiSeq instrument. The reads were aligned to a reference genome (e.g., the human reference genome (hg38), the cynomologus reference genome (mf5), the rat reference genome (rn6), or the mouse reference genome (mm10)) after eliminating those having low quality scores. The resulting files containing the reads were mapped to the reference genome (BAM files), where reads that overlapped the target region of interest were selected and the number of wild type reads versus the number of reads which contain an insertion, substitution, or deletion was calculated.
The editing percentage (e.g., the “editing efficiency” or “percent editing” or “indel frequency”) is defined as the total number of sequence reads with insertions/deletions (“indels”) or substitutions over the total number of sequence reads, including wild type. […]

Row | Molecule | Avg % Deletion | Avg % Edit | Avg % Insert
10 | G000494: TTR sgRNA modified sequence, Human, SEQ ID No. 101; guide sequence of CR003360 (nucleic acid) guide: mG*mU*mG*rArGrUrCrUrGrGrArGrArGrCrUrGrCrArUrGrUrUrUrUrArGrAmGmCmUmAmGmAmAmAmUmAmGmCrArArGrUrUrArArArArUrArArGrGrCrUrArGrUrCrCrGrUrUrArUrCrAmAmCmUmUmGmAmAmAmAmAmGmUmGmGmCmAmCmCmGmAmGmUmCmGmGmUmGmCmU*mU*mU*mU | 2.07% | 81.53% | 79.57%
11 | G000499: TTR sgRNA modified sequence, Human, SEQ ID No. 106; guide sequence of CR005303 (nucleic acid) guide: mU*mG*mA*rArUrCrCrArArGrUrGrUrCrCrUrCrUrGrArGrUrUrUrUrArGrAmGmCmUmAmGmAmAmAmUmAmGmCrArArGrUrUrArArArArUrArArGrGrCrUrArGrUrCrCrGrUrUrArUrCrAmAmCmUmUmGmAmAmAmAmAmGmUmGmGmCmAmCmCmGmAmGmUmCmGmGmUmGmCmU*mU*mU*mU | 1.43% | 83.40% | 82.00%
12 | G000498: TTR sgRNA modified sequence, Human, SEQ ID No. 105; guide sequence of CR003359 (nucleic acid) guide: mA*mG*mU*rGrArGrUrCrUrGrGrArGrArGrCrUrGrCrArGrUrUrUrUrArGrAmGmCmUmAmGmAmAmAmUmAmGmCrArArGrUrUrArArArArUrArArGrGrCrUrArGrUrCrCrGrUrUrArUrCrAmAmCmUmUmGmAmAmAmAmAmGmUmGmGmCmAmCmCmGmAmGmUmCmGmGmUmGmCmU*mU*mU*mU | 22.87% | 91.37% | 68.50%
13 | G000491: TTR sgRNA modified sequence, Human, SEQ ID No. 98; guide sequence of CR003338 (nucleic acid) guide: mA*mU*mA*rCrCrArGrUrCrCrArGrCrArArGrGrCrArGrGrUrUrUrUrArGrAmGmCmUmAmGmAmAmAmUmAmGmCrArArGrUrUrArArArArUrArArGrGrCrUrArGrUrCrCrGrUrUrArUrCrAmAmCmUmUmGmAmAmAmAmAmGmUmGmGmCmAmCmCmGmAmGmUmCmGmGmUmGmCmU*mU*mU*mU | 1.90% | 66.20% | 64.37%
14 | G000485: TTR sgRNA modified sequence, Human, SEQ ID No. 92; guide sequence of CR003336 (nucleic acid) guide: mC*mC*mU*rCrCrUrCrUrGrCrCrUrUrGrCrUrGrGrArCrGrUrUrUrUrArGrAmGmCmUmAmGmAmAmAmUmAmGmCrArArGrUrUrArArArArUrArArGrGrCrUrArGrUrCrCrGrUrUrArUrCrAmAmCmUmUmGmAmAmAmAmAmGmUmGmGmCmAmCmCmGmAmGmUmCmGmGmUmGmCmU*mU*mU*mU | 1.07% | 22.93% | 22.00%
